Source: paper PMC5767185, “Arabidopsis G-Protein β Subunit AGB1 Interacts with BES1 to Regulate Brassinosteroid Signaling and Cell Elongation” (Frontiers in Plant Science, 2017)

Target: T1, His-AGB1 (Arabidopsis, UniProt P49177 1-377)
T1 construct: AGB1 of Arabidopsis, full length, cloned into pCOLD-TF; as the empty pCOLD-TF vector gives His-TF, the fusion probably carries trigger factor between the His tag and AGB1 (surmised); also called His-tagged AGB1; source: E. coli (Rosetta), pCOLD-TF, purified; not shown: His, N-terminal, kept
T1 sequence (looked up): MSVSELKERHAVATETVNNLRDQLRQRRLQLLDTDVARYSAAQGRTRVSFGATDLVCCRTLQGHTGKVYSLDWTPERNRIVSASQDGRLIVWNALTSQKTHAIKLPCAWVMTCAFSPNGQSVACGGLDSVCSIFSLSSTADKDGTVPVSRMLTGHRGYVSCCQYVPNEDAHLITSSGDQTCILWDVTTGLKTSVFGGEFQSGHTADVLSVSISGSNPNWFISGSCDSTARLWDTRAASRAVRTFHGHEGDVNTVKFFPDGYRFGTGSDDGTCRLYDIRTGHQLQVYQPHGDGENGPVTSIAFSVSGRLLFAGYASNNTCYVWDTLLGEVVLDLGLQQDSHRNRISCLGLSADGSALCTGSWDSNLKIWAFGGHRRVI
Assay: pull-down; GST-BES1 held on glutathione beads (MagneGST), His-AGB1 or His-TF added, lysis buffer without EDTA, 2 h at 4°C; prey detected with anti-His antibody
Conditions: both partners purified

B1: GST-BES1 (natural protein, Arabidopsis, UniProt Q9LN63 1-335, looked up)
chain: MTSDGATSTSAAAAAAAMATRRKPSWRERENNRRRERRRRAVAAKIYTGLRAQGNYNLPKHCDNNEVLKALCSEAGWVVEEDGTTYRKGHKPLPGDMAGSSSRATPYSSHNQSPLSSTFDSPILSYQVSPSSSSFPSPSRVGDPHNISTIFPFLRNGGIPSSLPPLRISNSAPVTPPVSSPTSRNPKPLPTWESFTKQSMSMAAKQSMTSLNYPFYAVSAPASPTHHRQFHAPATIPECDESDSSTVDSGHWISFQKFAQQQPFSASMVPTSPTFNLVKPAPQQLSPNTAAIQEIGQSSEFKFENSQVKPWEGERIHDVAMEDLELTLGNGKAHS
notes: BES1 of Arabidopsis, full length, cloned into pGEX-4T-1; also called GST-tagged BES1; source: E. coli (Rosetta), pGEX-4T-1, purified; not shown: GST, N-terminal, kept
binding result: binds
